Data published in patent publication US20250277030A1 (Zymeworks, published 2025).

Assays:
[1] = biological target: T1, human sodium-dependent phosphate transporter 2B (NaPi2b) (human, UniProt O95436 1-690); experiment: flow cytometry, IGROV-1 cells (endogenous NaPi2b); apparent Kd
T1 construct: UniProt ID is given as 095436 [sic]; also called hNaPi2b; Hu NaPi2b
T1 sequence: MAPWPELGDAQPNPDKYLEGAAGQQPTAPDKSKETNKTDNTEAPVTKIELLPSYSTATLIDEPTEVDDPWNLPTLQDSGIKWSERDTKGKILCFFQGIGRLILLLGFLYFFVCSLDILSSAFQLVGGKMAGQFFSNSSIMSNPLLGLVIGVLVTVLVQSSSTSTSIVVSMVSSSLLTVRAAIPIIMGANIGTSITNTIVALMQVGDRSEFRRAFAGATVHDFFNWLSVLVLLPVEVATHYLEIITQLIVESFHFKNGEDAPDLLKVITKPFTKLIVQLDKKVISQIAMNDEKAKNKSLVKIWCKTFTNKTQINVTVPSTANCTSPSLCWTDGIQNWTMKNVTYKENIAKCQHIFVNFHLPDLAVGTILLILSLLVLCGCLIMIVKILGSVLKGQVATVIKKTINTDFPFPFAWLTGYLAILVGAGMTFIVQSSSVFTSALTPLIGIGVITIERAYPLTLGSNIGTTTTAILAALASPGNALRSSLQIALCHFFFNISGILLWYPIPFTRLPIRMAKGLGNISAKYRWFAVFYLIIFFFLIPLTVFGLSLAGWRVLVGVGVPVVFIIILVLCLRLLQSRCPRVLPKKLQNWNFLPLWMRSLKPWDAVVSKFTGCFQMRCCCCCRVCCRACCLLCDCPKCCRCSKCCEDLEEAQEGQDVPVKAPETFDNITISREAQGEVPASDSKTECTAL
Experimental: (§1) Briefly, HEK293-6e cells were transfected for ˜24 hours to transiently express human NaPi2b, cynomolgus or mouse NaPi2b, at 1 μg of DNA per 1 million cells. Following transfection, 50,000 cells per well were seeded in V-bottom 96-well plates and incubated with 200 nM of primary antibody for 18-24 hours at 4° C. to prevent internalization. Post-incubation, cells were washed and stained with anti-Human IgG Fc AF647 conjugate (Jackson Immuno Research Labs, West Grove, PA, Cat. No. 109-605-098, Lot. No. 124868) at 4° C. for 1 hour. Following staining and washing, fluorescence was detected by flow cytometry on BD LSRFortessa™ Cell Analyzer (BD Biosciences, Franklin Lake, NJ) with 10,000 minimum events collected per well. The AF647/APC-A GeoMean (fluorescence signal geometric mean, proportional to anti-Human AF647 binding) was calculated for the live singlet cell population for each primary antibody using FlowJo™ v8 software (BD Biosciences, Franklin Lake, NJ). The Bmax and Kd of each primary antibody were calculated using GraphPad Prism Version 9 (GraphPad Software, San Diego, CA)
(§2) The ability of ADCs to bind to cells expressing NaPi2b was assessed. […] Binding to endogenous high NaPi2b-expressing cell lines IGROV-1 and HCC-78 was assessed by flow cytometry according to methods described in Example 5.

[2] = biological target: T1, human sodium-dependent phosphate …; experiment: flow cytometry, TOV-21G cells (endogenous NaPi2b); apparent Kd
Experimental: Briefly, cells were seeded at 50,000 cells/well in conical-bottom 96-well plates and treated with test antibody for 24 hours at 4° C. to prevent internalization. […] Following incubation, cells were washed and stained with anti-Human IgG Fc AF647 conjugate (Jackson Immuno Research Labs, West Grove, PA; Cat. No. 109-605-098) at 4° C. for 30 min. Following incubation and washing, fluorescence was detected by flow cytometry on a BD LSRFortessa™ Cell Analyzer (BD Biosciences, Franklin Lake, NJ) with 1,000 minimum events collected per well. The AF647/APC-A GeoMean (fluorescence signal geometric mean, proportional to anti-Human AF647 binding) was calculated for the live cell population using FlowJo™ Version 10.8.1 (BD Biosciences, Franklin Lake, NJ) and plotted for each test antibody using GraphPad Prism Version 9 (GraphPad Software, San Diego, CA).
The ability of the humanized antibody variants v38591 and v29456 to bind to NaPi2b expressed on cells was assessed on endogenous NaPi2b-expressing tumor cell lines IGROV-1 (ovarian adenocarcinoma) and TOV-21G (ovarian carcinoma) by flow cytometry.
Cellular binding was performed according to methods described in Example 13.

[3] = biological target: T1, human sodium-dependent phosphate …; experiment: cell-based or functional assay
[4] = biological target: T1, human sodium-dependent phosphate …; experiment: flow cytometry on HCC-78 cells (endogenous NaPi2b), 4 C, anti-human IgG Fc AF647 detection
Experimental: as §1, §2

[5] = biological target: T1, human sodium-dependent phosphate …; experiment: flow cytometry, HCC-78 cells (endogenous NaPi2b); apparent Kd
Experimental: as §1, §2

Kd [1]: 0.65 nM
Kd [2]: 0.6 nM
Internalized Fluorescence Fold-Over Palivizumab, HCC-78, 5 hrs [3]: 25.3 fold
Internalized Fluorescence Fold-Over Palivizumab, HCC-78, 24 hrs [3]: 59.9 fold
Internalized Fluorescence Fold-Over Palivizumab, NCI-H441, 5 hrs [3]: 2.4 fold
Internalized Fluorescence Fold-Over Palivizumab, NCI-H441, 24 hrs [3]: 4 fold
EC50 (read off the curve) [4]: ~2 nM
Kd [5]: 2.27 nM
B1: v29456 humanized anti-NaPi2b antibody (H1L2) (antibody, human IgG1, kappa)
heavy: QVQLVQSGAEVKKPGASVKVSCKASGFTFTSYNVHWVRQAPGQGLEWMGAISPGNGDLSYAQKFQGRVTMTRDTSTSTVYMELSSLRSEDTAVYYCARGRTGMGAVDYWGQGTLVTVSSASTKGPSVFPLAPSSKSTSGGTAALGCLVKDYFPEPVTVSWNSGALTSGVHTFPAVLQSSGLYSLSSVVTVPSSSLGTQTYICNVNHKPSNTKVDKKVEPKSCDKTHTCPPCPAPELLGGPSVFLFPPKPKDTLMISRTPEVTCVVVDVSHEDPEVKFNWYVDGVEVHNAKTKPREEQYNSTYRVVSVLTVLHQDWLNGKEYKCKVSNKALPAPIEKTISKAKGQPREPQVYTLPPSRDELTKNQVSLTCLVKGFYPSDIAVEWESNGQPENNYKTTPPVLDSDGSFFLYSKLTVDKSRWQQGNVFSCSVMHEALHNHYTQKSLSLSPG
light: DVQMTQSPSSLSASVGDRVTITCRASQDVYSYLNWYQQKPGKAVKLLIYYTSRLQSGVPSRFSGSGSGTDYTLTISSLQPEDFATYYCQQYNIFPWTFGQGTKLEIKRTVAAPSVFIFPPSDEQLKSGTASVVCLLNNFYPREAKVQWKVDNALQSGNSQESVTEQDSKDSTYSLSSTLTLSKADYEKHKVYACEVTHQGLSSPVTKSFNRGEC
